Assay results taken from publication PMC3835790, “Statistical Experimental Design Guided Optimization of a One-Pot Biphasic Multienzyme Total Synthesis of Amorpha-4,11-diene” (PLoS ONE, 2013).

Test system: CC(C)=CCC/C(C)=C/CC/C(C)=C/CO[P@@](=O)(O)OP(=O)(O)O
Assay: purified protein
Conditions: 100 mM Tris/HCl pH 7.4, 30°C, substrate not printed in the table row, FPP from the pathway

Chain of amorpha-4,11-diene synthase (Ads) (Artemisia annua) (chain, as listed by the source): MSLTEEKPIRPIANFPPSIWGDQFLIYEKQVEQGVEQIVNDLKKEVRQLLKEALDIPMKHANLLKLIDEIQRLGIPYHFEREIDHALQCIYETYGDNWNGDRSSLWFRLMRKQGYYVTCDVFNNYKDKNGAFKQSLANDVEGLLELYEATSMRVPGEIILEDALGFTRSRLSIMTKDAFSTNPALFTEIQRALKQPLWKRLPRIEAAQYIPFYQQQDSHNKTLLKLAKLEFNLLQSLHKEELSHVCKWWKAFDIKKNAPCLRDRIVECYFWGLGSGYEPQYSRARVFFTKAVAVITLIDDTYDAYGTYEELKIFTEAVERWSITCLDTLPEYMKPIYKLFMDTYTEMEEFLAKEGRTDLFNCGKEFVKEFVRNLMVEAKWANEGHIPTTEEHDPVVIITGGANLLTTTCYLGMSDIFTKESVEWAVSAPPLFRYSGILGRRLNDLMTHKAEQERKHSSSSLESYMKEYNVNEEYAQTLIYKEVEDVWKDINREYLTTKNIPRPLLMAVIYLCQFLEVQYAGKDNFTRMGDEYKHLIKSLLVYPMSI

Question: With “amorpha-4,11-diene synthase (Ads) (Artemisia annua)” as the substance, how does the Km read?
Answer: 43.72 ± 10.4 µM

Question: What about the kcat of the same substance?
Answer: 0.05 s⁻¹
